Where a chain is given by its changes, count along the chain named. Numbers in names are those of the source. Read-outs that look alike come from different tables or passages of the source. Blank lines part the entries; values can stand above or below the binder they belong to.
Experiments:
[1] = molecular target: T1, mouse Fzd4 (residues 41-537), monomeric, in lipid nanodiscs (mouse, UniProt Q61088 41-537); test: SEC
T1 sequence (looked up): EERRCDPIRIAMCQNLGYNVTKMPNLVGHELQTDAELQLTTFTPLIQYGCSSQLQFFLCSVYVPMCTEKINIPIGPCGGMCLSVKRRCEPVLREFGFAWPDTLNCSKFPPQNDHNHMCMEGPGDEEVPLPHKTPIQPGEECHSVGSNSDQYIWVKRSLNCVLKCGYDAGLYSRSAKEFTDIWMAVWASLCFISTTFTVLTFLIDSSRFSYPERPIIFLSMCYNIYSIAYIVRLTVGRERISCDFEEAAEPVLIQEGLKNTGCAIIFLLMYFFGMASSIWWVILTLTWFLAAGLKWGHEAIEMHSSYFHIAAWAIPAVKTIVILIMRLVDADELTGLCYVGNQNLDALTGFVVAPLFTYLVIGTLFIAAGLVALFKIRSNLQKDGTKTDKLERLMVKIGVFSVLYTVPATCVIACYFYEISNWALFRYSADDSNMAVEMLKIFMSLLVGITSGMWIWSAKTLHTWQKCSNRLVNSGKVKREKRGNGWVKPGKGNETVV

[2] = molecular target: T2, human FZD5 (residues 27-585), in lipid nanodiscs (human, UniProt Q13467 27-585); test: SEC
[3] = molecular target: T1, mouse Fzd4 (residues 41-537), …; test: BLI
[4] = molecular target: T1, mouse Fzd4 (residues 41-537), …; test: BLI; remark: listed apart in the source
[5] = molecular target: T1, mouse Fzd4 (residues 41-537), …; test: BLI; remark: listed apart in the source
[6] = molecular target: human FZD7 (residues 33-574), in lipid nanodiscs (human, UniProt O75084 33-574); test: BLI
[7] = molecular target: pre-formed xWnt8-FZD5 complex in nanodiscs (human | Xenopus laevis, UniProt Q13467 27-585; P28026 23-358); test: BLI
[8] = molecular target: T2, human FZD5 (residues 27-585), in lipid …; test: BLI
[9] = molecular target: T1, mouse Fzd4 (residues 41-537), …; test: BLI; remark: listed apart in the source
[10] = molecular target: T1, mouse Fzd4 (residues 41-537), …; test: BLI; remark: listed apart in the source
[11] = molecular target: T1, mouse Fzd4 (residues 41-537), …; test: BLI; remark: listed apart in the source

T2 sequence (Q13467 27-585): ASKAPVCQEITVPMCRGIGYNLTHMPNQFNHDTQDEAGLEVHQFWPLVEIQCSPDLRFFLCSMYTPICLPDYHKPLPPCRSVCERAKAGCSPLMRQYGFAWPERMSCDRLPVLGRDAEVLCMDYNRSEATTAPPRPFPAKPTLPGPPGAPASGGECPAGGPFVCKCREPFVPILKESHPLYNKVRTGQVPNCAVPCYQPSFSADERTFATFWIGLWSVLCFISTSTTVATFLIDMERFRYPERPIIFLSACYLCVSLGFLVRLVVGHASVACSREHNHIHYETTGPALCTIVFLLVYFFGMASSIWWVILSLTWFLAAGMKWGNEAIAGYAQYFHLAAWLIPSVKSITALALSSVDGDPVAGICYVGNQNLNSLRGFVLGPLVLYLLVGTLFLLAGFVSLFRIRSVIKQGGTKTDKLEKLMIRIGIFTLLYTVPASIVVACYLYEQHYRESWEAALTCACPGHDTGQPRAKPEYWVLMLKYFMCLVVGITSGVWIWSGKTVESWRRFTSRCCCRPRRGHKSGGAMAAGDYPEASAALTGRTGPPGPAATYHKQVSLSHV
Chain of pre-formed xWnt8-FZD5 complex in nanodiscs (Q13467 27-585, one chain of several): as the sequence (Q13467 27-585) above

B1: Xenopus laevis Wnt8 (ligand, UniProt P28026 23-358, looked up)
chain: AWSVNNFLMTGPKAYLTYSASVAVGAQNGIEECKYQFAWERWNCPESTLQLATHNGLRSATRETSFVHAISSAGVMYTLTRNCSMGDFDNCGCDDSRNGRIGGRGWVWGGCSDNAEFGERISKLFVDGLETGQDARALMNLHNNEAGRLAVKETMKRTCKCHGISGSCSIQTCWLQLAEFRDIGNHLKIKHDQALKLEMDKRKMRSGNSADNRGAIADAFSSVAGSELIFLEDSPDYCLKNISLGLQGTEGRECLQSGKNLSQWERRSCKRLCTDCGLRVEEKKTEIISSCNCKFHWCCTVKCEQCKQVVIKHFCARRERDSNMLNTKRKNRGHRR
binding result [1]: binds
binding result [2]: binds

B2: DEP domain of mouse Dvl2 (residues 416-510) (domain or fragment, UniProt Q60838 416-510, looked up)
chain: GLSVHMDMASVTKAMAAPESGLEVRDRMWLKITIPNAFLGSDVVDWLYHHVEGFPERREARKYASGLLKAGLIRHTVNKITFSEQCYYVFGDLSG
Kd [3]: ~2000 nM
Kd [4]: 1200 nM
Kd [5]: > 10000 nM
binding result [6]: binds
binding result [7]: binds
binding result [8]: binds
Kd [9]: ~40 nM

Second part, the binder after the results:

binding result [10]: binds
B3: DEP domain of mouse Dvl2 bearing a G436P mutation (domain or fragment, UniProt Q60838 416-510, looked up)
chain: B2 chain with G21P

binding result [11]: binds
B4: human Norrin (ligand, UniProt Q00604 25-133, looked up)
chain: KTDSSFIMDSDPRRCMRHHYVDSISHPLYKCSSKMVLLARCEGHCSQASRSEPLVSFSTVLKQPFRSSCHCCRPQTSKLKALRLRCSGGMRLTATYRYILSCHCEECNS
